We go through 21 molecules from patent US20260184804A1 (KEY2BRAIN, published 2026).

Assay [1] has as its target T1, His-tagged ectodomain of human transferrin receptor 1 (hTfR1), amino acids R121-F760 (human, UniProt P02786 121-760).
T1 construct: Made in CHO cells, purified by IMAC; also called human TfR1; ectodomain of hTfR1
Nature of the assay: SPR (Biacore T200); hTfR1 amine-coupled (~2300 RU), single concentration. How it is done: (§1) Briefly, hTfR1 was covalently immobilized to the surface of a CM5 chip (Cytiva) by amine coupling using standard reagents. […] Subsequently, all six VHHs were diluted in running buffer (PBS supplemented with 0.05% Tween® 20 (PBS-T)) to 100 nM. A signal equal or higher than the corresponding WT was regarded as “binding similar to WT” (see Table 11).
On the technique in general: SPR reads the build-up and loss of mass on a sensor chip optically.

Assay [2] concerns the target T1, His-tagged ectodomain of human …. Kind of assay: SPR (Biacore 8K, single-cycle); hTfR1 amine-coupled on CM5, fusion as analyte 0.25-64 nM.
The target is the same in assay [3]. Nature of the assay: SPR (Biacore T200); hTfR1 amine-coupled (~2300 RU), VHH at 100 nM; column: binding to hTfR1 similar to corresponding WT VHH. The protocol: as §1
Assay [4] has the same target. Kind of assay: SPR (Biacore T200); hTfR1 amine-coupled (~1000 RU), VHH at 50 nM; X = binding similar to control. The protocol: (§2) Briefly, hTfR1 was covalently immobilized to the surface of a CM5 chip (Cytiva) by amine coupling using standard reagents. Human TfR1 was diluted to 15 μg/mL in 10 mM sodium acetate pH 5.5 and immobilizing level was aimed to 1000 response units (RUs). Subsequently, all VHHs were diluted in running buffer (PBS supplemented with 0.05% Tween® 20) to 50 nM. […] Similarly, KB_A15 was also only tested fused to a His6 tag.
(§3) KB_A20-KB_A31 were only produced in CHO cells and purified by PrismA™ resin.

Assay [5] shares this target. Kind of assay: SPR (Biacore T200); hTfR1 amine-coupled (~1000 RU), single concentration; - = no apparent binding. The protocol: as §2, §3
For assay [6] the target is unchanged. Kind of assay: SPR (Biacore T200); hTfR1 amine-coupled (~1000 RU), VHH at 50 nM; (X) = binding affinity decreased. The protocol:
as §2, §3

The target in assay [7] is T2, His-tagged ectodomain of mouse transferrin receptor 1 (mTfR1), amino acids S122-F763 (mouse, UniProt Q62351 122-763).
T2 construct: Made in CHO cells; also called mouse TfR1
Nature of the assay: phage ELISA on coated mTfR1 (1 µg/ml). For orientation: An ELISA detects its analyte on a solid surface through an enzyme-linked reagent.
Description: Selected phage samples were diluted 1:10 in block buffer casein ELISA blocker (ThermoFischer Scientific), 20% v/v PEG8000 in 2.5 M NaCl before the ELISA. The targets (hTfR1, cTfR1, mTfR1) were coated at 1 μg/ml in PBS pH 7.4 overnight at 4° C. in 96-well Greiner plates (non-treated), 100 μl. The coating buffer was discarded and replaced by 100 μl block solution. The plate was covered and incubated at RT for 2 h, 900 rpm. Anti-human TfR1 antibody BA3 (MEM189, Sigma, 1 mg/ml) and anti-mTfR1 (81D3, Novus biologicals, 1 mg/ml) were diluted in block buffer to 100 nM starting concentration and diluted 1:2 in series by transferring 100 μl to 100 μl block buffer. Plates were incubated for 1 h at RT, 900 rpm, Wells were washed 3×300 μl in PBST (PBS with 0.1% Tween® 20) using the 50TS microplate washer (Biotek). Anti-M13 antibody (Anti-PVIII GE Healthcare) diluted 1:4000 in block buffer, 100 μl was added to target-coated wells followed by incubation for 1 h at RT, 900 rpm. Washing with PBST was performed. The secondary anti-mouse antibody (Sigma) 1:4000 in block buffer, incubated 1 h at RT, 900 rpm. Washes in PBST was followed by development with TMB substrate. The reaction was stopped with addition of 2 M H₂SO₄ to each well, readings for absorbance at 450 nm was measured using a SpectraMax 3000 (Molecular Devices). […]

Assay [8] concerns the target T1, His-tagged ectodomain of human …. Kind of assay: SPR (Biacore T200); hTfR1 amine-coupled (~1000 RU), VHH at 50 nM; (-) = binding affinity severely decreased. The protocol: as §2, §3

T1 sequence (P02786 other isoform, or with tags, fused parts or gaps limits assumed): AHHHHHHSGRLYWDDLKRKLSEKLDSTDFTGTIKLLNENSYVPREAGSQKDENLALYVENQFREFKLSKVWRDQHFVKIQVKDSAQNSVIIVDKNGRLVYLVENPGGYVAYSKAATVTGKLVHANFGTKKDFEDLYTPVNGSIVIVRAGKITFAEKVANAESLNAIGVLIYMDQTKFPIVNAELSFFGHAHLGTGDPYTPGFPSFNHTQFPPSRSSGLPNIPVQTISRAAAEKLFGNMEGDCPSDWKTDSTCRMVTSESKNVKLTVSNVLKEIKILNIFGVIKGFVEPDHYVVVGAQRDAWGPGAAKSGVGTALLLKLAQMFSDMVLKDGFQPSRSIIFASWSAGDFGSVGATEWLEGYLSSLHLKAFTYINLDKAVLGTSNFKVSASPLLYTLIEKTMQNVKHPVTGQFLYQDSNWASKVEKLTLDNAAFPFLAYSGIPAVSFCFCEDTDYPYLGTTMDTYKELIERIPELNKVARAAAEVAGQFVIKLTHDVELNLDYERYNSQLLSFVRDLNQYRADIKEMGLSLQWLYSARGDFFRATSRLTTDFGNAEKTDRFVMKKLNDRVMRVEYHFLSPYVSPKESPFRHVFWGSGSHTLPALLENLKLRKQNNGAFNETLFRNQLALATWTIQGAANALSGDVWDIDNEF
T2 sequence (Q62351 other isoform, or with tags, fused parts or gaps limits assumed): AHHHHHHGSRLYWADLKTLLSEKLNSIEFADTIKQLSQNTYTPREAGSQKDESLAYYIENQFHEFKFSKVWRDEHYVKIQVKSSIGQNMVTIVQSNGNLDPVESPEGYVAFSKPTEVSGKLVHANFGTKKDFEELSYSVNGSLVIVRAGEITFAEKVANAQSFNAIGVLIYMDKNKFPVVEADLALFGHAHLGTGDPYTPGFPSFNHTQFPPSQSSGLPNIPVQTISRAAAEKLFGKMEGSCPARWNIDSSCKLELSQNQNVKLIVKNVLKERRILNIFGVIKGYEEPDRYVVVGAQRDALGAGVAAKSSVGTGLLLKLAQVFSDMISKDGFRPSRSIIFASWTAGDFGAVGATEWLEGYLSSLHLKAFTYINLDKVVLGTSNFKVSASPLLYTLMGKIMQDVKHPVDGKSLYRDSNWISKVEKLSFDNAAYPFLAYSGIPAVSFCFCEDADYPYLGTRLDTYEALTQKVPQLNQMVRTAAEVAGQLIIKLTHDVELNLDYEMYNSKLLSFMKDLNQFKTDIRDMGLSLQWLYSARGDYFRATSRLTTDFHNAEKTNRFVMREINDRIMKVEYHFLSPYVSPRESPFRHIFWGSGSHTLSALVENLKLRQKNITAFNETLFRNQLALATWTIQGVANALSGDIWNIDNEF

B1: ProA positive control 1 with GGHHHHHH tag (VHH)
VHH: QVQLQESGGGLVQPGGSLRLSCAASGFTFSSYAMSWVRQAPGKGLEWVSAISGSGGSTYYADSVKGRFTISRDNSKNTLYLQMNSLRAEDTAVYYCGTDMEVWGKGTTVTVSSGGHHHHHH
Regarding B1, the binding result in assay [1] is reported as “no binding (tested: 100 nM)”.

B2: KB_A01-scFv (scFv of 3D6 at the C-terminus of KB_A01) (bispecific antibody)
chain: QVQLQESGGGSVQAGGSLSLSCAASGSIFGSKRMGWFRQAPGEQRDVVATITYRGTTEYADSVKGRFTISRDNAKNTVYLQMNNLKPEDTAVYYCWMFTTDNYWGQGTQVTVSSGGGGSGGGGSGGGGSEVKLVESGGGLVKPGASLKLSCAASGFTFSNYGMSWVRQNSDKRLEWVASIRSGGGRTYYSDNVKGRFTISRENAKNTLYLQMSSLKSEDTALYYCVRYDHYSGSSDYWGQGTTVTVSGGGGSGGGGSGGGGSYVVMTQTPLTLSVTIGQPASISCKSSQSLLDSDGKTYLNWLLQRPGQSPKRLIYLVSKLDSGVPDRFTGSGSGTDFTLKISRIEAEDLGLYYCWQGTHFPRTFGGGTKLEIKGSENLYFQSHHHHHH
notes: Monovalent for TfR1; also called VHH-scFv
Turning to B2, in assay [2], binding was put at a Kd of 3.44 nM, the koff is 0.0075 s⁻¹ and the kon turned out to be 2.18e+06 M⁻¹ s⁻¹.

B3: KB_A12 (KB_A01: S19R, N84S) with GGHHHHHH tag (VHH)
VHH: QVQLQESGGGSVQAGGSLRLSCAASGSIFGSKRMGWFRQAPGEQRDVVATITYRGTTEYADSVKGRFTISRDNAKNTVYLQMNSLKPEDTAVYYCWMFTTDNYWGQGTQVTVSSGGHHHHHH
In the case of B3, the binding result in assay [3] was “binds”.

B4: KB_A15 (KB_A01: S19R, V78I, N84S), His6-tagged (VHH)
VHH: QVQLQESGGGSVQAGGSLRLSCAASGSIFGSKRMGWFRQAPGEQRDVVATITYRGTTEYADSVKGRFTISRDNAKNTIYLQMNSLKPEDTAVYYCWMFTTDNYWGQGTQVTVSS
notes: also called KB3_A15
Take B4: in assay [4], the binding result is “binds”.

B5: KB_A19 (humanized variant of KB_A01) (VHH)
VHH: EVQLVESGGGLVQPGGSLRLSCAASGSIFGSKRMGWVRQAPGKGLEWVSAITYRGTTYYADSVKGRFTISRDNSKNTLYLQMNSLRAEDTAVYYCARFTTDNYWGQGTLVTVSS
notes: Free VHH from CHO cells without tag; also run as His6-tagged E. coli form
As for B5, in assay [5], the binding result was “no binding (tested: 50 nM)”.

B6: scFv-KB_A01 (scFv of 3D6 at the N-terminus of KB_A01) (bispecific antibody)
chain: EVKLVESGGGLVKPGASLKLSCAASGFTFSNYGMSWVRQNSDKRLEWVASIRSGGGRTYYSDNVKGRFTISRENAKNTLYLQMSSLKSEDTALYYCVRYDHYSGSSDYWGQGTTVTVSGGGGSGGGGSGGGGSYVVMTQTPLTLSVTIGQPASISCKSSQSLLDSDGKTYLNWLLQRPGQSPKRLIYLVSKLDSGVPDRFTGSGSGTDFTLKISRIEAEDLGLYYCWQGTHFPRTFGGGTKLEIKGGGGSGGGGSGGGGSQVQLQESGGGSVQAGGSLSLSCAASGSIFGSKRMGWFRQAPGEQRDVVATITYRGTTEYADSVKGRFTISRDNAKNTVYLQMNNLKPEDTAVYYCWMFTTDNYWGQGTQVTVSSGSENLYFQSHHHHHH
notes: Monovalent for TfR1; also called scFv-VHH
Take B6: in assay [2], the Kd was 3.16 nM, the koff was found to be 0.00539 s⁻¹ and the kon is 1.7e+06 M⁻¹ s⁻¹.

B7: KB_A18 (humanized variant of KB_A01) (VHH)
VHH: EVQLVESGGGLVQPGGSLRLSCAASGSIFGSKRMGWFRQAPGKQRDVVATITYRGTTEYADSVKGRFTISRDNAKNTIYLQMNSLRPEDTAVYYCWMFTTDNYWGQGTLVTVSS
notes: Free VHH from CHO cells without tag; also run as His6-tagged E. coli form; also called KB3_A18
For B7, the binding result in assay [4] is listed as “binds”.

B8: KB_A30 (KB_A18 plus W96A) (VHH)
VHH: EVQLVESGGGLVQPGGSLRLSCAASGSIFGSKRMGWFRQAPGKQRDVVATITYRGTTEYADSVKGRFTISRDNAKNTIYLQMNSLRPEDTAVYYCAMFTTDNYWGQGTLVTVSS
notes: Free VHH from CHO cells, no tag
Regarding B8, the binding result in assay [5] was “no binding (tested: 50 nM)”.

B9: KB_A16 (humanized variant of KB_A01) (VHH)
VHH: EVQLVESGGGSVQPGGSLRLSCAASGSIFGSKRMGWFRQAPGKQRDVVATITYRGTTEYADSVKGRFTISRDNAKNTVYLQMNSLRPEDTAVYYCWMFTTDNYWGQGTQVTVSS
notes: Free VHH from CHO cells without tag
Turning to B9, the binding result in assay [4] was “binds”.

B10: KB_A27 (KB_A18 plus E58Y) (VHH)
VHH: EVQLVESGGGLVQPGGSLRLSCAASGSIFGSKRMGWFRQAPGKQRDVVATITYRGTTYYADSVKGRFTISRDNAKNTIYLQMNSLRPEDTAVYYCWMFTTDNYWGQGTLVTVSS
notes: as for B8
With B10, the binding result in assay [6] is reported as “binds”.

B11: KB_A20 (KB_A18 plus F37V) (VHH)
VHH: EVQLVESGGGLVQPGGSLRLSCAASGSIFGSKRMGWVRQAPGKQRDVVATITYRGTTEYADSVKGRFTISRDNAKNTIYLQMNSLRPEDTAVYYCWMFTTDNYWGQGTLVTVSS
notes: Free VHH from CHO cells, no tag, purified on PrismA resin
B11: the binding result in assay [5] is reported as “no binding (tested: 50 nM)”.

B12: KB_A01 clone displayed on phage (VHH)
VHH: QVQLQESGGGSVQAGGSLSLSCAASGSIFGSKRMGWFRQAPGEQRDVVATITYRGTTEYADSVKGRFTISRDNAKNTVYLQMNNLKPEDTAVYYCWMFTTDNYWGQGTQVTVSS
For B12, the binding result in assay [7] was “no binding”.

B13: KB_A25 (KB_A18 plus A49S) (VHH)
VHH: EVQLVESGGGLVQPGGSLRLSCAASGSIFGSKRMGWFRQAPGKQRDVVSTITYRGTTEYADSVKGRFTISRDNAKNTIYLQMNSLRPEDTAVYYCWMFTTDNYWGQGTLVTVSS
notes: as for B8
Turning to B13, the binding result in assay [5] was “no binding (tested: 50 nM)”.

B14: KB_A22 (KB_A18 plus R45L) (VHH)
VHH: EVQLVESGGGLVQPGGSLRLSCAASGSIFGSKRMGWFRQAPGKQLDVVATITYRGTTEYADSVKGRFTISRDNAKNTIYLQMNSLRPEDTAVYYCWMFTTDNYWGQGTLVTVSS
notes: as for B8
For B14, the binding result in assay [4] is on record as “binds”.

B15: KB_A26 (KB_A18 plus T50A) (VHH)
VHH: EVQLVESGGGLVQPGGSLRLSCAASGSIFGSKRMGWFRQAPGKQRDVVAAITYRGTTEYADSVKGRFTISRDNAKNTIYLQMNSLRPEDTAVYYCWMFTTDNYWGQGTLVTVSS
notes: as for B8
Consider B15, for which, in assay [5], the binding result is given as “no binding (tested: 50 nM)”.

B16: KB_A31 (KB_A18 plus M97R) (VHH)
VHH: EVQLVESGGGLVQPGGSLRLSCAASGSIFGSKRMGWFRQAPGKQRDVVATITYRGTTEYADSVKGRFTISRDNAKNTIYLQMNSLRPEDTAVYYCWRFTTDNYWGQGTLVTVSS
notes: as for B8
Take B16: the binding result in assay [5] is recorded as “no binding (tested: 50 nM)”.

B17: KB_A28 (KB_A18 plus A74S) (VHH)
VHH: EVQLVESGGGLVQPGGSLRLSCAASGSIFGSKRMGWFRQAPGKQRDVVATITYRGTTEYADSVKGRFTISRDNSKNTIYLQMNSLRPEDTAVYYCWMFTTDNYWGQGTLVTVSS
notes: as for B8
On to B17, for which the binding result in assay [4] is recorded as “binds”.

B18: KB_A17 (humanized variant of KB_A01) (VHH)
VHH: EVQLVESGGGLVQPGGSLRLSCAASGSIFGSKRMGWFRQAPGKQRDVVATITYRGTTEYADSVKGRFTISRDNAKNTVYLQMNSLRPEDTAVYYCWMFTTDNYWGQGTQVTVSS
notes: as for B5
As for B18, in assay [4], the binding result is “binds”.

B19: KB_A23 (KB_A18 plus D46E) (VHH)
VHH: EVQLVESGGGLVQPGGSLRLSCAASGSIFGSKRMGWFRQAPGKQREVVATITYRGTTEYADSVKGRFTISRDNAKNTIYLQMNSLRPEDTAVYYCWMFTTDNYWGQGTLVTVSS
notes: as for B8
As to B19, the binding result in assay [4] is on record as “binds”.

B20: KB_A24 (KB_A18 plus V47W) (VHH)
VHH: EVQLVESGGGLVQPGGSLRLSCAASGSIFGSKRMGWFRQAPGKQRDWVATITYRGTTEYADSVKGRFTISRDNAKNTIYLQMNSLRPEDTAVYYCWMFTTDNYWGQGTLVTVSS
notes: as for B8
Take B20: the binding result in assay [8] is reported as “binds”.

B21: KB_A21 (KB_A18 plus Q44G) (VHH)
VHH: EVQLVESGGGLVQPGGSLRLSCAASGSIFGSKRMGWFRQAPGKGRDVVATITYRGTTEYADSVKGRFTISRDNAKNTIYLQMNSLRPEDTAVYYCWMFTTDNYWGQGTLVTVSS
notes: as for B8
Consider B21, for which the binding result in assay [4] was “binds”.

As a reminder, the Kd is the free concentration of one partner at which half of the binding sites on the other are occupied at equilibrium, for simple one-to-one binding. What is called koff is the rate constant with which the complex falls apart. Lower therefore signals a long-lived complex. A word on the kon: it is the rate constant with which the complex forms. A higher kon goes with fast association.
